Test results published in patent US9228015B2, “Nogo receptor antagonists and methods of increasing neurite outgrowth” (Biogen Idec MA Inc., priority 2006, dated 2016).

Experiments:
[1] = test system: DRG neurons, myelin-mediated inhibition of neurite outgrowth; assay: Neurite outgrowth assay, P3-4 rat DRG neurons, myelin mixed with test protein (Example 10); assay type: cell-based; conditions: mixed with CNS myelin, FIGS. 9-11
Procedure: Lab-Tek® culture slides (4 wells) were coated with 0.1 mg/ml poly-D-lysine (Sigma®). CNS myelin alone or mixed with sNogoR310, sNogoR310-Fc fusion protein, mAb 5B10 or control PBS were separately spotted as 3 μl drops. Fluorescent microspheres (Polysciences) were added to the myelin/PBS to allow later identification of the drops (Grandpre et al., Nature 403:439-444 (2000)). Lab-Tek® slides were then rinsed and coated with 10 μg/ml laminin (Gibco™).
Dorsal root ganglions (DRG's) from P3-4 Sprague Dawley rat pups were dissociated with 1 mg/ml collagenase type 1 (Worthington), triturated with fire-polished Pasteur pipettes pre-plated to enrich in neuronal cells and finally plated at 23,000 cells/well on the pre-coated Labtek culture slides. The culture medium was F12 containing 5% heat inactivated donor horse serum, 5% heat inactivated fetal bovine serum and 50 ng/ml mNGF and incubated at 37° C. and 5% CO2 for 6 hours.
Slides were fixed for 20 minutes with 4% paraformaldehyde containing 20% sucrose and stained for the neuronal marker anti beta-III-tubulin (Covance TUJ1) diluted 1:500. As secondary antibody anti-mouse Alexa Fluor® 594 (Molecular Probes) was diluted 1:300 and slides were coverslipped with Gel/Mount™ (Biømeda™). 5× digital images were acquired with OpenLab™ software and analyzed by using the MetaMorph® software for quantification of neurite outgrowth.

[2] = test system: rats with dorsal hemisection of the spinal cord; assay: Rat spinal cord transection assay (Example 12); assay type: in vivo; conditions: intrathecal pump, up to 28 days, FIG. 12
Procedure: Alzet® osmotic pumps were loaded with test solution (sNogoR310-Fc in PBS) made up freshly on the day of use. The loading concentration was calculated to be 5 and 50 μM. Pumps were primed for >40 hours at 37° C. prior to implantation into animals. Female Long Evans rats were given pre-operative analgesia and tranquilizer and anesthetized using isoflurane (3% in O2).
Rats were placed in a stereotaxic frame and the motor cortex exposed for infusion of the tract tracing agent BDA (10,000 MW) bilaterally. Rats then underwent dorsal hemisection of the spinal cord at TS-T6 followed by implantation of the intrathecal catheter and pump system to deliver test compound (n=1 per group).
Rats were allowed to recover and survive up to 28 days after surgery. Behavioral scoring using the BBB system was recorded up to 28 days after induction of injury, just prior to termination of the in-life phase of the study. […]
The Basso-Beattie-Bresnahan (BBB) locomotor rating scale (Basso et al., Neurotrauma 13:343-359 (1996)), the inclined plane test and the inclined grid walking test (Li and Strittmatter, J Neurosci. 23:4219-27 (2003)) were monitored in rats and mice after injury. For the inclined plane test, we measured the maximal angle to which a 50 cm×60 cm board could be angled for 5 sec without the mouse sliding off. […]

[3] = test system: Nogo-66, MAG and myelin action; assay: Blockade of Nogo-66, MAG and myelin action in vitro
[4] = test system: rats with mid-thoracic dorsal hemisection injury; assay: Intrathecal sNogoR310-Fc in rats with mid-thoracic dorsal hemisection: axon tracing and histology; assay type: in vivo, rat
Text: We isolated spinal cord 4 mm rostral to and 4 mm caudal to the lesion site (8 mm long in total) from transgenic mice and embedded it in a glutaraldehyde-polymerized albumin matrix, and cut parasagittally on a vibratome (30 μm thick). We collected transverse sections (50 μm) from the spinal cord 5-7 mm rostral to and 5-7 mm caudal to the injury site. For sNogoR310-Fc injection experiments in rats, the spinal cord extending from 10 mm rostral to 10 mm caudal from the lesion site was cut parasaggitally (50 μm) on a vibrating microtome. Transverse sections were collected from the spinal cord 11-16 mm rostral to and 11-16 mm caudal to the injury site. We incubated the sections with avidin-biotin-peroxidase complex and visualized the BDA tracer by nickel-enhanced diaminobenzidine HRP reaction (Grandpre, Nature 417:547-551 (2002)). We processed some sections for serotonin immunohistochemistry (anti-5-HT antibody) by indirect immunofluorescence. To visualize the lesion area, we double-stained some sections with antibodies directed against GFAP (Sigma®, St. Louis, Mo.). We mounted, dehydrated and covered the sections with mounting medium.
We fused the ligand binding domain (27-310) of rat Nogo receptor-1 to the rat IgG1 Fc domain to promote stability and purification. We purified protein from stably transfected CHO cells. This protein blocks Nogo-66, MAG and myelin action in vitro, as shown previously for mouse sNogoR310-Myc His (Fournier et al., J Neurosci. 22:8876-8883 (2002); Liu et al., Science 297:1190-1193 (2002)). We delived sNogoR310-Fc protein intrathecally to rats with a mid-thoracic dorsal hemisection injury through an osmotic minipump. During a four-week survival period after injury, 1.2 mg sNogoR310-Fc protein was locally administered in each rat. In rats receiving the vehicle treatment (1.2 mg rat IgG), sections rostral to hemisection display the tightly bundled prominent dorsal CST and very few ectopic BDA-labeled CST fibers above the lesion site. […] Numerous ectopic fibers sprouting from the BDA-labeled CST are observed from transverse and parasagittal sections. In some cases, projections cross from the dCST area near the midline to the circumference of the cord, becoming intermingled with the dorsolateral CST. The sprouting axons extend though gray matter to a greater extent than white matter.
(§1) We deeply anaesthetized female Sprague-Dawley rats (190-250 g) and conducted laminectomies at spinal levels of T6-7, exposing the spinal cord. We cut the dorsal half of the spinal cord with a 30-gauge needle and a pair of microscissors to sever the dorsal parts of CSGT tracts, and assured the depth of the lesion (1.8 mm) by passing the sharp part of a number 11 blade across the dorsal half of the cord (Grandpre et al., Nature 417:547-551 (2002)). An osmotic minipump (Alzet® 2ML4, 2 ml volume, 2.5 μl/h, 28 day delivery), which was filled with 1.2 mg rat IgG in PBS or 1.2 mg sNogoR310-Fc fusion protein in PBS, was sutured to muscles under the skin on the back of the animals. A catheter connected to the outlet of the minipump was inserted into the intrathecal space of the spinal cord at the T7-8 level through a small hole in the dura.
Fourteen days after hemisection, a burr hole was made on each side of the skull overlying the sensorimotor cortex of the lower limbs to trace CST fibers. The anterograde neuronal tracer BDA (10% in PBS, 3.5 μl per cortex) was applied at seven injection sites at a depth of 1.5 mm from dura on each side (Grandpre et al., Nature 417:547-551 (2002)). For rubrospinal tract tracing in rats, the tracer BDA (1 μl; MW 10,000; 10% in PBS) was injected into red nucleus on the left side (5.8 mm posterior to bregma, 0.7 mm lateral, 7.0 mm ventral to the skull surface). Two weeks after BDA injection, these animals were perfused with PBS, followed by 4% paraformaldehyde, and tissue was collected for histology.

[5] = test system: rats with mid-thoracic dorsal hemisection injury; assay: Intrathecal sNogoR310-Fc in rats with dorsal hemisection: behavioral tests; assay type: in vivo, rat
Text: The Basso-Beattie-Bresnahan (BBB) locomotor rating scale (Basso et al., Neurotrauma 13:343-359 (1996)), the inclined plane test and the inclined grid walking test (Li and Strittmatter, J Neurosci. 23:4219-27 (2003)) were monitored in rats and mice after injury. For the inclined plane test, we measured the maximal angle to which a 50 cm×60 cm board could be angled for 5 sec without the mouse sliding off. For inclined grid walking, the mice were trained to climb a wire grid (35 cm long with 2.54 cm squares) at a slope of 45 degrees. The number of instances in which the hindpaw dropped below the grid plane was scored for each excursion from bottom to top. For the rat behavioral testing, BBB locomotor scale, grid walking and footprint analysis were performed. For grid walking, the rats were trained to walk on a wire grid (70 cm long with 2.54 an squares), and the number of instances in which the hindpaw dropped below the grid plane was counted. For footprint analysis, the walking patterns of rat hindpaws were recorded with ink during a continuous locomotion across a 90 cm runway, and stride length on each side and stride width were calculated (Metz et al., Brain Res. 883:165-177 (2000)). All of these behavioral tests were performed by at least two individuals. Throughout the surgery, behavioral testing and histologic analysis, researchers were blind to the identity of the compound in the minipump.
as §1, with “A catheter connected to the outlet of the minipump was inserted into the intrathecal space of the spinal cord at the T7-8 level through a small hole in the dura.” left out

B1: sNogoR310-Fc: fusion protein comprising amino acids 26-310 of rat Nogo receptor-1 and a rat Fc fragment (protein)
chain: PCPGACVCYNEPKVTTSRPQQGLQAVPAGIPASSQRIFLHGNRISYVPAASFQSCRNLTILWLHSNALAGIDAAAFTGLTLLEQLDLSDNAQLRVVDPTTFRGLGHLHTLHLDRCGLQELGPGLFRGLAALQYLYLQDNNLQALPDNTFRDLGNLTHLFLHGNRIPSVPEHAFRGLHSLDRLLLHQNHVARVHPHAFRDLGRLMTLYLFANNLSMLPAEVLVPLRSLQYLRLNDNPWVCDCRARPLWAWLQKFRGSSSGVPSNLPQRLAGRDLKRLATSDLEGCA
modifications: left off: a dimerising Fc or GST
notes: fusion protein comprising amino acids 26-310 of rat Nogo receptor-1 and a rat Fc fragment
protection of DRG neurons from myelin-mediated inhibition of neurite outgrowth [1]: protected | functional recovery (BBB score) [2]: promoted functional recovery | blocks Nogo-66, MAG and myelin action in vitro [3]: blocks | BDA-labeled axons from sagittal sections ([4]; 1-2 mm caudal to lesion, each rat): approximately 20 | number of sprouts ([4]; 1-10 mm caudal): ~50 sprouts/rat | traced axons from sagittal sections ([4]; 7-8 mm distal to lesion, each rat): ~15 | serotonin fibers relative to control group ([4]; 11-15 mm below the lesion): twice as numerous | density of serotonergic fibers vs vehicle ([4]; 11-15 mm rostral to lesion): similar | total collateral length of each sprout relative to NEP 1-40-treated animals ([4]; distal spinal cord): twice as great | ectopic sprouting fibers adjacent to the dCST ([4]; rostral to lesion, 1.2 mg intrathecal over four weeks): greater increase | average number of BDA-labeled CST fibers relative to vehicle-treated rats ([4]; transverse sections 11-15 mm caudal to hemisection): approximately 20 fold | BDA-labeled RST fibers ([4]; transverse sections 11-15 mm distal to SCI): many BDA-labeled RST fibers | grid walking errors ([5]; 2-4 weeks post-injury, on average): 4-7 /session | locomotor BBB score ([5]; 2-4 weeks post-trauma): continues to improve | animals with consistent forelimb-hindlimb coordination and parallel paw position ([5]; 4 weeks after injury, 9 treated animals): 9
